Measurements taken from patent publication US8822187B1, “Polypeptides, nucleic acid molecules, and methods for synthesis of triterpenes” (University of Kentucky Research Foundation, priority 2011, dated 2014).
“Also recorded” adds a separate entry of the source.

B1: SSL-2: Botryococcus braunii race B squalene synthase-like 2 enzyme; bacterial form is truncated SSL-2-tr2 (protein)
chain: MVKLVEVLQHPDEIVPILQMLHKTYRAKRSYKDPGLAFCYGMLQRVSRSFSVVIQQLPDELRHPICVFYLILRALDTVEDDMNLPNEVKIPLLRTFHEHLFDRSWKLKCGYGPYVDLMENYPLVTDVFLTLSPGAQEVIRDSTRRMGNGMADFIGKDEVHSVAEYDLYCHYVAGLVGSAVAKIFVDSGLEKENLVAEVDLANNMGQFLQKTNVIRDYLEDINEEPAPRMFWPREIWGKYAQELADFKDPANEKAAVQCLNHMVTDALRHCEIGLNVIPLLQNIGILRSCLIPEVMGLRTLTLCYNNPQVFRGVVKMRRGETAKLFMSIYDKRSFYQTYLRLANELEAKCKGEASGDPMVATTLKHVHGIQKSCKAALSSKELLAKSGSALTDDPAIRLLLLVGVVAYFAYAFNLGDVRGEHGVRALGSILDLSQKGLAVASVALLLLVLLARSRLPLLTSASSKQ
B2: Botryococcus braunii race B squalene synthase-like 1 (SSL-1), wild type, hexa-histidine tagged, SEQ ID NO: 2 (Botryococcus braunii) (protein)
chain: MTMHQDHGVMKDLVKHPNEFPYLLQLAATTYGSPAAPIPKEPDRAFCYNTLHTVSKGFPRFVMRLPQELQDPICIFYLLLRALDTVEDDMNLKSETKISLLRVFHEHCSDRNWSMKSDYGIYADLMERFPLVVSVLEKLPPATQQTFRENVKYMGNGMADFIDKQILTVDEYDLYCHYVAGSCGIAVTKVIVQFNLATPEADSYDFSNSLGLLLQKANIITDYNEDINEEPRPRMFWPQEIWGKYAEKLADFNEPENIDTAVKCLNHMVTDAMRHIEPSLKGMVYFTDKTVFRALALLLVTAFGHLSTLYNNPNVFKEKVRQRKGRIARLVMSSRNVPGLFRTCLKLANNFESRCKQETANDPTVAMTIKRLQSIQATCRDGLAKYDTPSGLKSFCAAPTPTK

Assays:
[1] = Purified bacterial-expressed enzymes incubated with FPP, products by GC-MS or TLC/scintillation counting; assay type: biochemical; settings: for squalene or botryococcene biosynthesis by purified enzyme in vitro: FPP as substrate, enzyme assayed alone
Source text: (§1) FIG. 6 depicts the functional characterization of the squalene synthase-like genes of Botryococcus braunii race B. The squalene synthase-like genes, SSL-1, SSL-2 and SSL-3, were expressed in yeast separately (SSL-1 (B), SSL-2(C) or SSL-3(D)) or in combinations (SSL-1+SSL-2(E), SSL-1+SSL-3(F)) and the hexane extractable metabolites profiled by GC-MS. The chemical profile of yeast not engineered with any gene constructs serves as the background control (A). […] Data (J) represents mean±S.E.M. obtained from three independent experiments (n=3). The chromatograms (A-I) are also annotated for the elution behavior of botryococcene (1), squalene (2), presqualene alcohol (3) and bisfarnesyl ether (4).
The recombinant vectors were transformed into E. coli strain BL21(DE3) according to the manufacturer's recommendations (Novagen). The selected lines were grown with kanamycin selection at 37° C. with vigorous shaking until the cultures reached an optical density of ˜0.8 (OD600 nm), then expression of the corresponding SSL gene induced by addition of 0.5 mM isopropylthio-β-D-galactoside (IPTG) and the cultures incubate for an additional 3 to 20 h with shaking at room temperature. One hundred ml of the culture was subject to centrifugation at 4,000 g for 10 min, the pelleted cells resuspended in 10 ml of lysis buffer containing 50 mM NaH2PO4, pH 7.8, 300 mM NaCl, 10 mM imidazole, 1 mM MgCl2, 1 mM PMSF, 1% glycerol (v/v), then sonicated 4× for 10 sec with a microprobe sonicator at 60% maximum power. The samples were cooled on ice for 2 min between sonication treatments. The sonicate was centrifuged at 16,000 g for 10 min at 4° C. and the supernatant used for purification of the hexa-histidine tagged enzymes.
Purification of the bacterial expressed enzymes was afforded by the amino-terminal hexa-histidine tag using His-Select Cobalt affinity gel (Sigma) columns according the manufacturer's recommendations. Recovery of proteins with the expected molecular sizes was determined by SDS-PAGE. The purified protein fractions were concentrated using Amicon Ultra (0.5 ml, 10K) centrifugation filter units and stored in 300 mM NaCl, 20 mM Tris-HCl pH 7.5, 5 mM dithiothreitol, 2 mM MgCL2, 50% glycerol (v/v) at −20° C. for 2-3 weeks without noticeable loss of activity.
Typical enzyme assays were initiated by mixing aliquots of purified enzyme with 50 mM Mops, pH 7.3, 20 mM MgCl2, 2.5 mM 2-mercaptoethanol, 10 μM [1-^3H]-FPP (˜2×10^5 dpm total), and 2 mM NADPH in total reaction volume of 50 μl. Reactions were incubated at 37° C. for 1 h and then extracted with 100 μl n-hexane or 100 ul MTBE. Forty μl of the n-hexane or MTBE extract was then spotted onto silica TLC plates with authentic standards of botryococcene and squalene and developed with n-hexane, or standards of bisfarnesyl ether and developed with n-hexane:MTBE, 25:1. The standards were visualized with iodine vapors and TLC zones corresponding to the standards were scrapped and analyzed by scintillation spectrometry. If Botryococcus lysate was added to enzyme assays, typically 5 μl of lysate (corresponding to 10 μg total protein) prepared from B. braunii cells according to Okada et al. (1) was added. […] Extracts were resuspended in 50 μl hexane and an aliquot analyzed by GC-MS with a Varian CP-3800 GC coupled to a Varian Saturn 2200 MS/MS (Varian Medical Systems) using a Supelco SLB-5 ms fused silica capillary column (30 m×0.25 mm×0.25 μM film thickness, Supelco). […]

TN7 yeast line = assay: Expression of SSL genes in TN7 yeast line, hexane extractable metabolites by GC-MS; assay type: cell-based
Source text: as §1
FIG. 10 includes a comparison of botryococcene production in yeast engineered with different configurations of SSL-1 and SSL-3. Yeast line TN7 was engineered with the SSL-1 and SSL-3 genes on separate plasmids (squares), with gene fusions (SSL-1 fused to SSL-3 via a triplet repeat of GGSG (triangles), or vice versa (diamonds)), or with 63 or 71 amino acids of the carboxy terminus of the Botryococcus squalene synthase, sequences containing a membrane spanning domain, appended to the carboxy termini of the SSL-1 and SSL-3 enzymes, respectively (circles). The data represents mean±S.E.M.
The various recombinant yeast expression vectors were introduced into the TN7 yeast line via lithium acetate transformation, followed by selection for uracil and leucine auoxtrophic growth (Takahashi, et al. (2007)). […] Individual colonies of TN7 and the various TN7-transformants were subsequently grown in 25 ml of YPDE (nutrient rich) or Yeast Synthetic Drop-out medium (selection) for the indicated time at 25° C. before analyzing the cultures for production of novel triterpene components. In brief, 1 ml aliquots of the culture were combined with 1 ml of acetone, vigorously mixed, and incubated at room temperature for 10 min. One ml of hexane was added and mixed vigorously for 60 sec. […] The dried extract was resuspended in 50-500 μl of n-hexane and a 1 μl aliquot analyzed by GC-MS as described above. […]

[2] = SSL-2 incubated by itself, NADPH-dependent

Molecule	squalene or botryococcene biosynthesis by purified enzyme in vitro [1]	bisfarnesyl ether share of products [1, 2]	squalene share of products [1, 2]	squalene accumulating, share of the total (TN7 yeast line; expressed in yeast)	products accumulating in yeast (TN7 yeast line; gene expressed separately in yeast)
B1	neither bacterial-expressed, purified enzymes exhibited any botryococcene biosynthesis; also recorded: low capacity for squalene biosynthesis	~90%	~10%	~10 % of the total	
B2	did not exhibit either squalene nor botryococcene biosynthesis				accumulated to significant levels
